B1: FIXa-Y155F/K247N/N249S/N260S/R318Y/R338E/R403E/E410N (protein)
chain 1: not shown
chain 2: not shown
B2: FIXa-N260S/R318Y/R338E/T343R/R403E/E410N (protein)
chain 1: not shown
chain 2: not shown
B3: FIXa K228N/R338E/R403E (mature FIX numbering) (protein)
chain 1: not shown
chain 2: not shown
B4: FIXa-Y155F/K247N/N249S/R338E/T343R (protein)
chain 1: not shown
chain 2: not shown
B5: FIXa-Y155F/K247N/N249S/R318Y/R338E/T343R/R403E/E410N (protein)
chain 1: not shown
chain 2: not shown
B6: FIXa Y155F/K247N/N249S/R338E/R403E (protein)
chain 1: not shown
chain 2: not shown
B7: FIXa-R318Y/T343R/R403E/E410N (protein)
chain 1: not shown
chain 2: not shown
B8: FIXa-Y155F/R338E/T343R/R403E/E410N (protein)
chain 1: not shown
chain 2: not shown
B9: FIXa-K228N/I251S/R318Y/R338E/R403E/E410N (protein)
chain 1: not shown
chain 2: not shown
B10: FIXa-Y155F/K247N/N249S/R318Y/R338E/T343R/E410N (protein)
chain 1: not shown
chain 2: not shown
B11: FIXa-Y155F/K247N/N249S/R318Y/E410N (protein)
chain 1: not shown
chain 2: not shown
B12: FIXa-Y155F/K247N/N249S/R338E/R403E (protein)
chain 1: not shown
chain 2: not shown
B13: FIXa-Y155F/K228N/I251S/R318Y/R338E/R403E/E410N (protein)
chain 1: not shown
chain 2: not shown
B14: FIXa R318Y/R338E/E410N (mature FIX numbering) (protein)
chain 1: not shown
chain 2: not shown

The proteins below were run against Factor X, P00742.
Chain of Factor X, P00742 (P00742 whole entry, looked up): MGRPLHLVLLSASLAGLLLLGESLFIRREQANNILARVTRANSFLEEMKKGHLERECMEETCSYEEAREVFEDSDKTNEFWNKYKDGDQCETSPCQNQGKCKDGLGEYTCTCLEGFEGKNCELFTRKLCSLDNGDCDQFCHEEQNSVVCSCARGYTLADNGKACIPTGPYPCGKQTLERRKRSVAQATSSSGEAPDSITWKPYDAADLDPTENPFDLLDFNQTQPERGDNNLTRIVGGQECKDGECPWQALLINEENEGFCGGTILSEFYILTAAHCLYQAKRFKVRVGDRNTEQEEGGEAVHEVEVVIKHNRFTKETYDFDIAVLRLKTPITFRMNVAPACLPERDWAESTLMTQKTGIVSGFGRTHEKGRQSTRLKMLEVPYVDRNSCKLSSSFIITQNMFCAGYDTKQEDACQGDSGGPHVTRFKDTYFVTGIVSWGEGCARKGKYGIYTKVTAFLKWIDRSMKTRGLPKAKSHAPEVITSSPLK

Going from B1 to B2, the kcat/KM rises from 5.7e+07 M⁻¹ s⁻¹ to 2.9e+08 M⁻¹ s⁻¹ (5.1-fold).

First: B5
Second: B6
The kcat/KM of the first is 2.9-fold higher: 4e+08 M⁻¹ s⁻¹ for the first, 1.4e+08 M⁻¹ s⁻¹ for the second.

Going from B7 to B8, the kcat/KM rises from 5.8e+07 M⁻¹ s⁻¹ to 2.4e+08 M⁻¹ s⁻¹ (4.1-fold).

Going from B9 to B11, the kcat/KM falls from 2.1e+08 M⁻¹ s⁻¹ to 7.2e+07 M⁻¹ s⁻¹ (2.9-fold).

B13 gave a kcat/KM of 1.4e+08 M⁻¹ s⁻¹.

Going from B3 to B6, the “% of WT kcat/KM” value rises from 108% to 299%.

Compared with B11, B14 is higher in “% of WT kcat/KM” value: 155% for the first, 770% for the second.

B4 and B10 are within 1.5-fold of each other in KM: 0.0153 µM for the first, 0.0177 µM for the second.

B11 and B12 are within 1.5-fold of each other in KM: 0.0488 µM for the first, 0.0409 µM for the second.
